Results: the RNAGym collection of RNA variant scans (doi:10.1021/acssynbio.7b00057)

B1: Pistol ribozyme (parent)
chain: GGGUCGUUGUUCCAUAAUCGCGUGGAUAUGGCACGCAAGUUUCUACCGGGCACCGUAAAUGUCCGACUGGAGCCGUUCGGGCGGCUAUAAACAGACCUCAGGCCCGAAGCGUGGCGGCACCUGCCGCCGGUGGUAAAAAAGAUCGGAAGAGCACACGUCU

Variants of: B1
Test: aptazyme ON/OFF ratio, guanine; higher = stronger switching; co-transcriptional cleavage with and without guanine

Question: Which “aptazyme ON/OFF ratio” value does the source give for U7A U8C G9U U10C U11G C13U here?
Answer: 1.25

Question: Which “aptazyme ON/OFF ratio” value does the source give for U8G U11A C12U C13A here?
Answer: 1.18

Question: For G9U C12A C13A, which “aptazyme ON/OFF ratio” value is on record?
Answer: 1.63

Question: Which “aptazyme ON/OFF ratio” value does the source give for U7G U10C U11C C12U here?
Answer: 1.12

Question: Which “aptazyme ON/OFF ratio” value does the source give for U8G U11G C12A C13A here?
Answer: 1.13

Question: For U7C U8G G9U U10C U11A C13G, which “aptazyme ON/OFF ratio” value is on record?
Answer: 1.24

Question: For U7A U8A U10A U11G C12U C13A, which “aptazyme ON/OFF ratio” value is on record?
Answer: 1.34

Question: Which “aptazyme ON/OFF ratio” value does the source give for U7A U8A G9C U10C C12G C13G here?
Answer: 1.05

Question: For U8A G9C U10G U11G C12A C13A, which “aptazyme ON/OFF ratio” value is on record?
Answer: 1.13

Question: For U7A U8C G9A U11C C12A C13U, which “aptazyme ON/OFF ratio” value is on record?
Answer: 1.23

Question: With U8G G9U U10C U11C C12A C13U as the variant, how does the “aptazyme ON/OFF ratio” value read?
Answer: 1.02

Question: For U7A U8A C12G C13A, which “aptazyme ON/OFF ratio” value is on record?
Answer: 1.2

Question: For U8G U10A U11A C12G C13G, which “aptazyme ON/OFF ratio” value is on record?
Answer: 1.21

Question: With U7A U8A G9A U10A U11C C12U as the variant, how does the “aptazyme ON/OFF ratio” value read?
Answer: 1.02

Question: Which “aptazyme ON/OFF ratio” value does the source give for U7A U8C G9C U10G U11C C12U C13G here?
Answer: 1.16

Question: With U8G G9A U10C U11A C13G as the variant, how does the “aptazyme ON/OFF ratio” value read?
Answer: 1.06

Question: For U7G U8A G9C U10A C12A, which “aptazyme ON/OFF ratio” value is on record?
Answer: 1.03

Question: With U7A U8C U10G U11A C12A C13G as the variant, how does the “aptazyme ON/OFF ratio” value read?
Answer: 1.15

Question: Which “aptazyme ON/OFF ratio” value does the source give for U8A G9C U10G U11C C12G C13A here?
Answer: 1.27

Question: For U8G G9C U10A C12U, which “aptazyme ON/OFF ratio” value is on record?
Answer: 1.08

Question: Which “aptazyme ON/OFF ratio” value does the source give for U8G G9U U10A U11A C12A here?
Answer: 1.34

Question: Which “aptazyme ON/OFF ratio” value does the source give for U8C U10G U11C C12A C13U here?
Answer: 1.32

Question: Which “aptazyme ON/OFF ratio” value does the source give for U7C G9U U10C here?
Answer: 2.79

Question: With G9C U10A U11C C13G as the variant, how does the “aptazyme ON/OFF ratio” value read?
Answer: 1.04

Question: With U7G C12G C13G as the variant, how does the “aptazyme ON/OFF ratio” value read?
Answer: 1.14

Question: With U7A U8G G9A U10C U11G C12G as the variant, how does the “aptazyme ON/OFF ratio” value read?
Answer: 1.33

Question: Which “aptazyme ON/OFF ratio” value does the source give for U10C U11G C12A here?
Answer: 1.1

Question: With U7A U11A C12A as the variant, how does the “aptazyme ON/OFF ratio” value read?
Answer: 1.41

Question: For U7C U8G G9U U10G U11C, which “aptazyme ON/OFF ratio” value is on record?
Answer: 1.07

Question: For U7A U8A G9A U10G U11C C12A C13G, which “aptazyme ON/OFF ratio” value is on record?
Answer: 1.14

Question: Which “aptazyme ON/OFF ratio” value does the source give for U7A U8G U10G C12U C13A here?
Answer: 1.11

Question: Which “aptazyme ON/OFF ratio” value does the source give for U8C G9A U10A U11G C12A C13A here?
Answer: 1.1

Question: For U8C U10G U11A C12G C13A, which “aptazyme ON/OFF ratio” value is on record?
Answer: 1.13

Question: For U7G U8G U10G C12A, which “aptazyme ON/OFF ratio” value is on record?
Answer: 1.31

Question: For U8G G9U U10C U11G C12A C13A, which “aptazyme ON/OFF ratio” value is on record?
Answer: 1.14

Question: With U7A U8G G9A U10A U11G C12U C13U as the variant, how does the “aptazyme ON/OFF ratio” value read?
Answer: 1.33

Question: For U7G U8A U10C U11G C12A C13U, which “aptazyme ON/OFF ratio” value is on record?
Answer: 1.37

Question: Which “aptazyme ON/OFF ratio” value does the source give for G9C U10C U11G C12U here?
Answer: 1.07

Question: Which “aptazyme ON/OFF ratio” value does the source give for U7C G9A U10A U11C C12G C13G here?
Answer: 1.46

Question: With U7A U8C U10C U11G C13G as the variant, how does the “aptazyme ON/OFF ratio” value read?
Answer: 1.24

Question: Which “aptazyme ON/OFF ratio” value does the source give for G9U U10C C12G C13A here?
Answer: 1.35

Question: Which “aptazyme ON/OFF ratio” value does the source give for U7G U8A U10G C12U C13G here?
Answer: 1.54

Question: Which “aptazyme ON/OFF ratio” value does the source give for G9C U11G C12U C13G here?
Answer: 1.25

Question: Which “aptazyme ON/OFF ratio” value does the source give for U7A U8G G9U U10C U11G C12G C13U here?
Answer: 1.18

Question: For G9C U10G U11G C12A C13G, which “aptazyme ON/OFF ratio” value is on record?
Answer: 1.12

Question: With U8C G9C U11G C13G as the variant, how does the “aptazyme ON/OFF ratio” value read?
Answer: 1.19

Question: Which “aptazyme ON/OFF ratio” value does the source give for U8A G9A U10C U11G C13U here?
Answer: 1.17

Question: For U7A U8G G9A U10C U11C C12A C13A, which “aptazyme ON/OFF ratio” value is on record?
Answer: 1.09

Question: For U7C G9U U10C U11G C12A, which “aptazyme ON/OFF ratio” value is on record?
Answer: 1.09

Question: Which “aptazyme ON/OFF ratio” value does the source give for U8C U10A U11G C12A here?
Answer: 1.06

Question: Which “aptazyme ON/OFF ratio” value does the source give for U7G U8C U10A C12G C13U here?
Answer: 1.32

Question: With U7C U8G G9A U10A U11G C12G C13G as the variant, how does the “aptazyme ON/OFF ratio” value read?
Answer: 1.39

Question: With U8A C12U as the variant, how does the “aptazyme ON/OFF ratio” value read?
Answer: 1.62

Question: Which “aptazyme ON/OFF ratio” value does the source give for U7A G9C U11C C13A here?
Answer: 1.04

Question: For U7A U8G G9C U10C U11G C12A C13A, which “aptazyme ON/OFF ratio” value is on record?
Answer: 1.17

Question: Which “aptazyme ON/OFF ratio” value does the source give for U7A U8A G9U U10A U11G C12U C13U here?
Answer: 1.27

Question: Which “aptazyme ON/OFF ratio” value does the source give for U7G U8A G9C U10C C12U C13G here?
Answer: 1.01

Question: Which “aptazyme ON/OFF ratio” value does the source give for U7G U8G G9U U10G C12G here?
Answer: 1.33

Question: With U8A U10A C12A as the variant, how does the “aptazyme ON/OFF ratio” value read?
Answer: 1.11

Question: Which “aptazyme ON/OFF ratio” value does the source give for U7C U8C G9U U10C U11G C12G here?
Answer: 1.16

Question: For U8C C12G, which “aptazyme ON/OFF ratio” value is on record?
Answer: 1.38

Question: Which “aptazyme ON/OFF ratio” value does the source give for U8A G9C U10C U11A C12A here?
Answer: 1.06

Question: For U8A G9U U10G C12G C13U, which “aptazyme ON/OFF ratio” value is on record?
Answer: 1.28

Question: For U7G U8C G9U U11G C13A, which “aptazyme ON/OFF ratio” value is on record?
Answer: 1.32

Question: Which “aptazyme ON/OFF ratio” value does the source give for U7G U8C G9A U10G U11C C12U C13G here?
Answer: 1.16

Question: For U7G U8G U10C U11A C13U, which “aptazyme ON/OFF ratio” value is on record?
Answer: 1.47

Question: Which “aptazyme ON/OFF ratio” value does the source give for U7C U8C U10A U11G C12G C13G here?
Answer: 1.22

Question: With U7A U8A G9A U10C U11A C13U as the variant, how does the “aptazyme ON/OFF ratio” value read?
Answer: 1.09

Question: Which “aptazyme ON/OFF ratio” value does the source give for U7A U8G G9A U10C U11G C12G C13A here?
Answer: 1.22

Question: For U7A U8A G9U C12A C13A, which “aptazyme ON/OFF ratio” value is on record?
Answer: 1.25

Question: With U7G G9C U10A U11G C12A C13G as the variant, how does the “aptazyme ON/OFF ratio” value read?
Answer: 1.11

Question: For U7G U8G U11A C12A C13G, which “aptazyme ON/OFF ratio” value is on record?
Answer: 1.02

Question: For U8C G9A U10G U11C C13A, which “aptazyme ON/OFF ratio” value is on record?
Answer: 1.11

Question: With U7G U8A U11G C13G as the variant, how does the “aptazyme ON/OFF ratio” value read?
Answer: 1.15

Question: With G9U C12G C13G as the variant, how does the “aptazyme ON/OFF ratio” value read?
Answer: 1.27

Question: With U7A U8C G9A U10A U11C C12A C13G as the variant, how does the “aptazyme ON/OFF ratio” value read?
Answer: 1.18

Question: With U7C U8A U10A U11A C12A C13U as the variant, how does the “aptazyme ON/OFF ratio” value read?
Answer: 1.31

Question: With U7C U8C G9A U10C U11C C13U as the variant, how does the “aptazyme ON/OFF ratio” value read?
Answer: 1.19

Question: Which “aptazyme ON/OFF ratio” value does the source give for U7C U8G G9C U10A U11A C12U C13A here?
Answer: 1.21

Question: Which “aptazyme ON/OFF ratio” value does the source give for U7C U8A G9C U10A U11A here?
Answer: 1.27

Question: Which “aptazyme ON/OFF ratio” value does the source give for U8C G9A U10A U11G C12G here?
Answer: 1.12

Question: For U7G U8A U10C U11C C12U C13A, which “aptazyme ON/OFF ratio” value is on record?
Answer: 1.14

Question: For U7A G9A U10C C12U, which “aptazyme ON/OFF ratio” value is on record?
Answer: 1.26
